We go through 32 sequences from the Immune Epitope Database (IEDB).

Bounds are passed on as bounds.

Assay [1] addresses HLA-A*02:01. Nature of the assay: IEDB peptide-MHC binding, purified MHC/direct/fluorescence; filed as Kd, often an IC50 or EC50 that approximates it; ≥ and ≤ were set here for values at or beyond the usual limits of such assays.
The target of assay [2] is HLA-B*40:01. The assay is described as above.
For assay [3], the target named is HLA-B*27:05. The assay is described as above.
For assay [4], the target named is HLA-A*11:01. The assay is described as above.
For assay [5], the target named is HLA-B*15:01. The description is as above.
The target of assay [6] is HLA-B*35:01. Nature of the assay: IEDB peptide-MHC binding, purified MHC/competitive/radioactivity; filed as Kd, often an IC50 or EC50 that approximates it; ≥ and ≤ were set here for values at or beyond the usual limits of such assays.
The target in assay [7] is HLA-B*07:02. The description is as above.
The target of assay [8] is HLA-A*02:01. Nature of the assay: IEDB peptide-MHC binding, purified MHC/competitive/fluorescence; ≥ and ≤ were set here for values at or beyond the usual limits of such assays. To be noted: source organism: Zaire ebolavirus.
For assay [9], the target named is HLA-A*03:01. Nature of the assay: IEDB peptide-MHC binding, purified MHC/direct/fluorescence; filed as Kd, often an IC50 or EC50 that approximates it; ≥ and ≤ were set here for values at or beyond the usual limits of such assays.
The target of assay [10] is HLA-B*53:01. Nature of the assay: IEDB peptide-MHC binding, purified MHC/competitive/radioactivity; filed as Kd, often an IC50 or EC50 that approximates it; ≥ and ≤ were set here for values at or beyond the usual limits of such assays.
Assay [11] addresses HLA-A*69:01. Nature of the assay: IEDB peptide-MHC binding, purified MHC/direct/fluorescence; filed as Kd, often an IC50 or EC50 that approximates it; ≥ and ≤ were set here for values at or beyond the usual limits of such assays. As to conditions: source organism: Vibrio cholerae.
The target in assay [12] is HLA-B*07:02. Described as above. To be noted: source organism: Vibrio cholerae.
The target in assay [13] is HLA-A*02:03. Nature of the assay: IEDB peptide-MHC binding, purified MHC/competitive/radioactivity; filed as Kd, often an IC50 or EC50 that approximates it; ≥ and ≤ were set here for values at or beyond the usual limits of such assays.
Assay [14] deals with HLA-A*02:06. The assay is described as above.
The target in assay [15] is HLA-A*02:02. The description is as above.
Assay [16] has as its target HLA-A*01:01. Nature of the assay: IEDB peptide-MHC binding, purified MHC/direct/fluorescence; filed as Kd, often an IC50 or EC50 that approximates it; ≥ and ≤ were set here for values at or beyond the usual limits of such assays. As to conditions: source organism: Homo sapiens.
For assay [17], the target named is HLA-B*51:01. Nature of the assay: IEDB peptide-MHC binding, purified MHC/competitive/radioactivity; filed as Kd, often an IC50 or EC50 that approximates it; ≥ and ≤ were set here for values at or beyond the usual limits of such assays.
The target in assay [18] is HLA-A*68:01. The assay is described as above. To be noted: source organism: SARS coronavirus Tor2.
For assay [19], the target named is HLA-A*33:01. Described as above. To be noted: source organism: SARS coronavirus Tor2.
For assay [20], the target named is HLA-A*31:01. The assay is described as above. As to conditions: source organism: SARS coronavirus Tor2.
The target of assay [21] is HLA-B*58:01. Nature of the assay: IEDB peptide-MHC binding, purified MHC/direct/fluorescence; filed as Kd, often an IC50 or EC50 that approximates it; ≥ and ≤ were set here for values at or beyond the usual limits of such assays. To be noted: source organism: SARS-CoV1.
Setting [22] is: source organism: Dengue virus 1 Brazil/97-11/1997.
Setting [23] is: source organism: Dengue virus 4 Philippines/H241/1956.
The mark [24] stands for this setting: source organism: Francisella tularensis subsp. holarctica LVS.
The mark [25] stands for this setting: source organism: Vibrio cholerae.
The mark [26] stands for this setting: source organism: Dengue virus 3 Martinique/1243/1999.
Setting [27] is: source organism: Vaccinia virus WR.
Where [28] appears, read: source organism: Lymphocytic choriomeningitis virus (strain Armstrong).

In the case of VQQESSFVM, the Kd in assay [1] (source organism: SARS-CoV1) is 1070 nM; in assay [2] (source organism: SARS-CoV1), 7460 nM; in assay [3] (source organism: SARS-CoV1), 4770 nM; in [4] (source organism: SARS-CoV1), ≥ 20700 nM; in [5] (source organism: SARS-CoV1), 67.4 nM.
On to NPWMEDKTH, for which the Kd in [6] (setting [22]) was determined as 2300 nM.
Take NPTTLIASL: the Kd in assay [7] (setting [23]) came out at 210 nM.
The sequence QLNETIYTS had an IC50 in assay [8] of 2800 nM.
Regarding LEEEGVTPL, the Kd in assay [2] (source organism: Corynebacterium diphtheriae) worked out at 43.4 nM.
For the sequence LEKVQRQIQ, the IC50 in [8] is ≥ 446000 nM.
TLHFLTRGK showed a Kd in assay [9] (source organism: Mammarenavirus juninense) of 344 nM.
As for LATGPILTLW, the Kd in assay [10] (source organism: Dengue virus 4 Dominica/814669/1981) turned out to be 15.1 nM.
On to KLYGLSQGY, for which the Kd in assay [9] (setting [24]) came out at 4.7 nM; in assay [4] (setting [24]) it was 210 nM.
Regarding QLQCHQIAI, the Kd in [1] (setting [25]) worked out at 92 nM; in assay [11], 5310 nM; in assay [9] (setting [25]), 13200 nM; in [12], 6710 nM; in [5] (setting [25]), 7260 nM.
For the sequence VPMAGPLVA, in [7] (setting [26]), the Kd was found to be 56 nM.
In [3] (source organism: Mammarenavirus lassaense), RRLKAEAQM yielded a Kd of 53 nM.
As for RIITILQDI, the Kd in assay [13] (setting [27]) stood at 5.57 nM; in assay [14] (setting [27]), 2.01 nM; in assay [15] (setting [27]), 583 nM.
On to SVTRLENLMW, for which the Kd in [10] (source organism: Dengue virus 2 Jamaica/1409/1983) came out at 437 nM.
TPMLRHTIEN: the Kd in assay [7] (setting [26]) is 1020 nM.
Consider CSDDGFWSK, for which the values for the Kd in [9] (source organism: Homo sapiens), in assay [16] and in assay [4] (source organism: Homo sapiens) were 11000 nM, 423 nM and 138 nM, respectively.
With CTEETKRNI, the results for the Kd in assay [13] (setting [27]), in [14] (setting [27]) and in [15] (setting [27]) were ≥ 78100 nM, ≥ 77100 nM and ≥ 77800 nM, respectively.
With LPVLLGSFGC, the Kd in assay [17] (setting [22]) was ≥ 43500 nM; in assay [6] (setting [22]), 5940 nM; in assay [10] (setting [22]) it was 117 nM.
As to RLFTRCAVI, the Kd in [13] (setting [27]) was found to be 249 nM; in assay [14] (setting [27]), 2820 nM; in assay [15] (setting [27]), 93.8 nM.
With RNHLRDLMGV, the results for the Kd in [13] (setting [28]), in [14] (setting [28]) and in [15] (setting [28]) were 733 nM, 107 nM and 428 nM, respectively.
With VVYRGTTTY, the Kd in [18] is 8790 nM; in assay [19], ≥ 77700 nM; in assay [20], 9740 nM; in assay [21], 281 nM; in assay [5] (source organism: SARS-CoV1) it was 110 nM.
With FPYSIPATL, the Kd in assay [17] (setting [26]) came out at 89 nM; in [6] (setting [26]) it was 1.99 nM; in [10] (setting [26]), 2.15 nM.
In assay [9] (source organism: Mycobacterium tuberculosis variant bovis), GTHPTTTYK returned a Kd of 780 nM.
As to GLSSGFYFEI, the results for the Kd in assay [13] (setting [27]), in assay [14] (setting [27]) and in [15] (setting [27]) were 782 nM, 1730 nM and 48.3 nM, respectively.
As to TPRAKRGTA, the Kd in assay [7] (setting [22]) came out at 227 nM.
As to IPKIYGGPIS, the Kd in assay [7] (source organism: Dengue virus 1 Singapore/S275/1990) was 508 nM.
DIRDKYMEL: the Kd in assay [13] (setting [27]) is 3860 nM; in assay [14] (setting [27]) it was 14500 nM; in assay [15] (setting [27]), ≥ 24300 nM.
Take TPVTTWENV: the Kd in assay [17] (setting [26]) was 12900 nM.
The sequence LLFEVEQEI registered a Kd in [1] (source organism: Influenza A virus (A/Saudi Arabia/7971/2000(H1N1))) of 15.7 nM.
Consider GANGSTAEQL, for which the values for the Kd in assay [13] (setting [27]), in assay [14] (setting [27]) and in [15] (setting [27]) were ≥ 45300 nM, ≥ 55400 nM and 7280 nM, respectively.
On to VAEIQPQWI, for which the Kd in assay [17] (setting [23]) was ≥ 20900 nM.
For the sequence SLTTIGTIA, the Kd in assay [13] (setting [27]) was determined as 3.69 nM; in [14] (setting [27]) it was 489 nM; in [15] (setting [27]) it was 1.04 nM.
